Experiment: soluble fraction after stress (log2 fold change); higher = more stays soluble; pooled small domains, quantitative proteomics
Details: stress: pH 4
Method in brief: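 With high-throughput quantitative proteomics, pooled custom libraries of small protein domains were measured after pH 4 stress. Each domain's soluble amount after the stress gives a fold change taken as aggregation propensity. Higher log2 values mean more of the domain stayed soluble.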

Sequence	soluble fraction (log2)
HMRQMIIIMQKQAAASSVAAVVEFIRSKGLREHISPGAERTIIGAVGDERVFLPQELESLPQVERAIRVL	-0.85
HMLPSWPGVSEFEVARLLRRGRARGSLTLDEVIDVVRDAELTSELIAGIRSSLRAEGIDFEET	-1.85
HMSFEITGDELILRFVKDKGGATTEQIRKHWEASNRGGKSDNNLTNLVKSGKLLRSKDPNGPGSLYTAS	-0.749
HMGTSGLTIPRFVSLASGTVHMRAGPGVRYPITWIYKRLGTPLMVMAEHEFWRKVRDAEGTEGWMHRSLLS	-0.00785
HMPASVSAIRKYLGGGSFKGVGPALAKRIVDAFGEYTIETIENDPKQLAKVKGVSEKMALEINTQ	0.112
HMEVPQVETEKVEAKLKEAEVLLVKVTDSSLKANATETLAGLRNNLTLQTMDNNGIMAEAEKLLALLRES	-0.315
HMVQAQGARIREARVQRGLSQAQLGEPRYSGSYISHIENGRRSPGTDVLAFIAARLGLEPGALDS	-0.164
HMSSPVIQINTRNDGWIIKLLQPAVEKDVLEGYLADVGLKLQSQMMEKILAAPAGTEFHIKRGSNILTE	-0.133
HMVTPPMVVVDVQGEVKTPGVYHLPTNSRVNDAIKAAGGPKQSADLSYINQARMVKDGEQIYVEKKL	0.0679
HMEKMLENIDLKAAVEALPEREKKVILLRYYRGMTQDAAAKVMKVSQVQISRIEKRAIEILREKL	-0.226
HMDGYLQLASKKNELITQLKTPPKPKRLFKDFEDRVYLITEYKVFVVSIFQNEFRLRPVNKDDFYRYTT	-0.134
HMIAANMTISQRIAAALAEYGVMSVKDIAQEVLGATDKKDTEKIRVTLTRDHGKRFRTYSDGTWSLKDWRP	0.234
HMRSREGVRWIIRERIMEELQERHHMDDGELLEMIDRSIGEMGQEIFLPLKERIWLRGSLFDSFR	-1.44
HMVIQRQIPPLVTRMLDGLEQFIQLDMPFDLDTRLGNIEAVRANMDRSDVTSAEAYRQVLELYSIELQ	-0.0525
HMVEKNALSEEIEGYVNKYGKDRSSLMPVLQAIQRKHSYINDFAQQEVARLLDIHPVEVFSVISFYSFLH	-1
HMNNIINEAQIKQWVEEFYLSVSPRPTRATMIALVHKKIKEETKDGEEGQTVSETLINNFYTALEKEHKRK	0.22
HMHTGLTNYEYKQIKSSLLKILTQSESMRLGELVDKVDQFESEKVTTVIRFLVGNEELMLFDDTLTLKKQL	-0.232
HMETYTVSSKDGYANVRNEATVNSDLIAELKNGTLVTKFKEKGEWYYIEFEREDGTPFDYGYIHKSQLK	-0.224
HMTKYREVLRMSAGGFSQRVIASTLSISRNTVASTLKRAREQNLDWEAVEQQRLSEKDIANLLFP	0.293
HMVRSLADQVYERLRRNIVSGDLAPNARIVELDIAAQMGTSQGPVREALQRLEREGLVQRRAHSATFVTD	-0.324
HMKEVVVPDYFLKQLQKNKKAFITFNNFSPSHKREYVEWITEAKTEETKNRRMKSAIEWMSEGKSRNWKYI	0.22
HMRDFLMDSTKNKLSKDQVQLSRIFLWFGNDFGSKAERLEFISRYSGMDFNQPKIDYLTYDWSLNQ	-0.207
HMEHTPYLTEREADVVRLLVSGLDTAQIAQRLGIKTATVTAHKKHIFLKIGVRNTTQLVAWALIR	-0.557
HMDEKPPHEALSNREFQVLQLLAQGRSVGQIAQQLTLSANTISTYRARIFDKLGLHNPADLFSYAARHRLT	0.111
HMSDAKKRAFSKDEILYSLKNRPFTSFDIESLFDDESKKTFIGLLDKGEISEKKVAGTIFYYLR	-0.461

Sequence	soluble fraction (log2)
HMIAAVIAQVANTNERIILEKRYLSFKSWDEIAVEMRISPRWAYTLHERALKAVDQVLSKQNNE	-2.54
HMNAVYPNPFVSEIYIGENNRSVEIYNLNGGLVYGMSQPSSRIDVSGLAAGSYILIKKDSSGHISSHKIMK	-0.261
HMRGPVRLDLPVSGLSRSSGPALAKILQAVPGVHKAHVNVRSGKATLEYDPARAKVTDFVEVIRSAGFGT	-0.072
HMEVALEVPELRGLSMKQATNTLMASGFEVQKVGSGTIYAQFPLPGERLRTGYAVTIRGKTRDLG	0.047
HMSASSTAPGSVTLRGAILTAWTAAGGERSKMGLPVGYEVRQADGTVTQTFEKGRISVSPTGTATI	-0.0391
HMLFSEKLKQAMQDLHLNQIQVVGLTGKSKGSISQYISGKQVPSEATQRDIAISLGLEENYFSKK	0.216
HMSYFIFDGVLNLGKQYELKGEESSHITKSRRLRPGDSFLIQDQEGQRFEAILKSFDRNSLIFTPHKPTA	0.043
HMNNPLPDLLKYFRKKKHLTQEQVAKQLSVSRASYASYETGRIIPGMQHIMELSRILEHDFLFAYTLAVQ	-0.446
HMYQRLPFSFANRYKMVLESQHPERAPILYYVEPLKSAAIIEVSRVVKNGFTPQAITLDEFDKKLTDAYQR	-0.0881
HMIHIGAQEALGEFQDEEGNLTASKKEVVAALVKKSKEVSFPTSYEYEVAARMAADEYNDAGQRMA	-0.079
HMDDSVTFSEFVRMVDSGQVESVRITGNEVTGSDSTGNTFRTFVPPQYEGLVNRLVERDVAVTAEE	-0.284
HMNNPNFAIQKYVTGSDIKRVRKTLRLTQKKFAELVGVSKATMERWETKEDKITGPVVLLLKILEDHPEY	-0.0904
HMNDLVTWDRYKIELGDTLSEIAQKLVTRVDILKTVNQIQGTRIIAGNSLMVPRTTDTNVLTYL	-0.728
HMSMVGNIEKILVTGESKKSSELLAGRTENNRVVNFTGEKVLIGSMVNVRIEEVFPNSLGGSYLPS	0.0322
HMDAVQAGKRVLIVDDLIATGGTAKAATDLIEKAGGTVVGFSFVMRLDGLDGLDKLDGKPSSSLIAMP	-0.0677
HMEEKTMNLPPSAKLVYKILSYEGNLTQKEIINMTYLPERTVRHALELLLGKRLITRQAYLNDARQSVYG	-0.265
HMGQYLDAATVAAVYHAYHARNWTQATLAKELKVARPTLSNVLNGREAPSVELAARIRAFLGSPEP	≥ 0.43
HMDEEEKGEVEVPNLIGLTRKEAKKTLEEEGLLIETKESLKTNLDDEYEKIKSQLPKAGIKIKQGSTVYVD	0.183
HMFSWRQHLDHFGFSDEIKKRLADAVFLNDDWNEIDRGVLTKEELLARFIENDPGIEKEIYMVMENIN	-1.78
HMEHDYGLSGREREVLELMVQGLVKKEIADRLALSYHTVDNHLRSIYAKLQVHTRGGAVAKALSEHLVPP	-0.483
HMNKLIIDAAEDKIFFMIMNNDISYNISHENTKINFEKLIILINDFLSSKKLKINDITGLYV	-0.233
HMSTIAAMADPRAWALEMLGFPPGTVKPSKREIQVRFRESLRDVHPDHGGDSRTASASINDLSEARRVLLS	0.0192
HMQAITVNNEGKIFLNTIPVTLEELSSKLESLKSSTPEFPVVIRGDSGSQYQGIMDVLNVVGRLGITQIGL	-1.08
HMKRTFGEISPLPSGRYRARYRGPDGERYPAPVTFLSRMDAETWLSAQARKVSSGDWTPPVGVVA	0.195
HMGFAANLSRLMEYHNISMYRLAKEVGVHQTTVKNWLEEESEPKIAALEKIVGLLGVSYDELLG	-1.72

Sequence	soluble fraction (log2)
HMGPNYYDILEIPTDASPSEITQAFRKKALEWHPDKNPNNLEEATSRFIEIVEAYRVLSSKDSKLQYDTG	-0.422
HMATMSIDERILEIRSRAGLTQQEMADRLFVTRQAVSRWERGETVPGIDTLRLIAEAFDVRVDQILEL	-1.11
HMSNYYNILGVNKSSTQDEIKKAFRKKAVEHHPDKGGNEATFKKINEAYNTLSDNNKRHMYDMQQSG	0.267
HMNYVFVLNEHGVRQTSYVVGLHADTLEKTEKLAKQTYPTSTIISGDSEMQSQFISGKAYVNGEFVDP	-0.192
HMQSMSADDWSEKARVLMSAGIIVMGQEAKEKILNLKSLVPLIEAASASNVSMIDSRTFDELLMIIP	-2
HMTDKLEEEAKKKAMEDALADEMNISKTIVHDGIRELARIGFLDVISRKGIYVADYTFTGNLETLLAVIRY	-0.0919
HMKYSQAMIAQIIKHFHLPNNTVVTGEDVDAILLRSVDGGDGIYGGDVVSIWKYYKKQNDIQEIVT	-0.764
HMGNKDIEILFSEIVEMRNRIIHGFRITSKQGEQILATKTRKKDGNIQFEITKEYLLDFIKKNEELSDMLY	-1.49
HMHQKYIITGTRDTYVVSQGETLRTIAEHVYGSRGYARYIIEHNHITHPDDIPVGLTIRLPELELNPDYR	-0.209
HMVLSPAQVRRALMVSGLFTEARVARQLGVPMDLKQILRIILRNTPPQSAMARELESAIDEIESRNAMRD	-0.844
HMIPLKTEAIPVSYGDGAAIIRSLAVAFPSRTFHWDAQTRRIIGQALDEEWQVIRSLVWQLDIP	-1.06
HMDDEELDALKGIPANEYTQEQIKQISEVFHTLQKNEVKDWLNSLQLRNIELPFELRNEVFSQ	-0.43
HMSLNSELIARIENLIASIEDKRSWGYGFAESVLGQVQAGATLSPRQLEIIAKLEKENSYSVQLERQ	-0.479
HMPVSDLQSALRNTLSKGDATDPAFRQRVYRAAMDALERATGSESDPQRRSEQKQRLIAVIRDMEASYRR	0.101
HMDSERTALLSSDRTSFTAREAALLIGVSQRDIYRMIEDELLDSFTVGKMIRIRRSALEWWLS	-1.46
HMSVLVLPMLKELTHEDREVVELFYLNDMSVREIALIISVPIGTVKSRLHRARAQLKHQIVNLNQ	-1.18
HMAPFSGVEPREWDSLVERGRQSGEVHAEDVTHVLRHVELTGDVLTDVQSKMAEHGITIDDA	-0.0344
HMKVSFEIEINGVTKSINSINEAKEAISELQDIMDNSTFGSEEFKNAATQIDKLQNKLVEALDK	-1.4
HMTIKLFPNPSTDFIRVSELSAKENYKIYTILGSEIKRGSVSNNETIDIRNLNSGVYLLKFDNGTTKKIVK	0.124
HMLEIQENFQNILKRMELSLSPLERRVLALYLSGYERSEIPEKTGIPLKTFDNALHRVRNKMK	-0.711
HMKNYYSILGVTPDSSEAEIKSAYRRLARKFHPDVNPDGASRFKDISEAYETLSDAKKRFQYDTINGF	0.234
HMIEMAGGYRKGDRVELHSLKGAAEHNGKQGTVVGPQGERVKVLLDDSDSKTLALKVTNLTKLESA	0.0709
HMGVLGVDALAAAAEVSVDTVRYYQHLGLLEPPRREGRRAVYGPSHLARMGEIRRLAAAGFTLDQIRQLAE	-1.62
HMLQEFTLELATAVVQEFRDQPGALINALHKLQETFGYVDEAAMPVLARLFNLSRAEVHGVASFYHDFRRS	-1.35
HMFSNATISGLKAGALVRVYNISGVAVSTLTADAEGKVSVDLNNLPKGVYILSTPSKSFKVLN	0.176
